Each block holds one binder with its values, some of them ahead of it.
Experiments:
[1] = target: recombinant PD-L1 protein (PD-1 ligand), species not stated; experiment: MST
[2] = target: recombinant PD-L1 protein (PD-1 ligand), species not stated; experiment: ELISA

Chain of recombinant PD-L1 protein (PD-1 ligand), species not stated (Q9NZQ7 whole entry): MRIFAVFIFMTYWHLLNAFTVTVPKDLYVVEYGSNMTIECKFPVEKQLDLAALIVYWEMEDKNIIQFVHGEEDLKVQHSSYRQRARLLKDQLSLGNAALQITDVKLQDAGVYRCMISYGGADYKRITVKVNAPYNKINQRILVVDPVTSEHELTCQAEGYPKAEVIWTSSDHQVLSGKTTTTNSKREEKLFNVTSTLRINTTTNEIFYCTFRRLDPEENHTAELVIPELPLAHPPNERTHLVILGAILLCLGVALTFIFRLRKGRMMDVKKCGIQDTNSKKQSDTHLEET

Kd [1]: 115 nM
B1: huHF-TPP1 (CD loop) (designed binder, not shown: small tags and cut ends)
chain: MTTASTSQVRQNYHQDSEAAINRQINLELYASYVYLSMSYYFDRDDVALKNFAKYFLHQSHEEREHAEKLMKLQNQRGGRIFLQDIKKPDCDDWESGLNAMECALHLEKNVNQSLLELHKLATDKNDSGQYASYHCWCWRDPGRSGGSKPHLCDFIETHYLNEQVKAIKELGDHVTNLRKMGAPESGLAEYLFDKHTLGDSDNES

Kd [2]: 71.2 nM
B2: huHF-αPD-L1 HCDR3 (CD loop), Examples 1-6 (designed binder)
chain: MTTASTSQVRQNYHQDSEAAINRQINLELYASYVYLSMSYYFDRDDVALKNFAKYFLHQSHEEREHAEKLMKLQNQRGGRIFLQDIKKPDCDDWESGLNAMECALHLEKNVNQSLLELHKLATDKNDSGHGYSYGAFDYPHLCDFIETHYLNEQVKAIKELGDHVTNLRKMGAPESGLAEYLFDKHTLGDSDNES

Kd [1]: 72.1 nM
B3: huHF-TPP1 (AB loop) (designed binder, not shown: small tags and cut ends)
chain: MTTASTSQVRQNYHQDSEAAINRQINLELYASYVYLSMSYYFDRDDSGQYASYHCWCWRDPGRSGGSKVALKNFAKYFLHQSHEEREHAEKLMKLQNQRGGRIFLQDIKKPDCDDWESGLNAMECALHLEKNVNQSLLELHKLATDKNDPHLCDFIETHYLNEQVKAIKELGDHVTNLRKMGAPESGLAEYLFDKHTLGDSDNES

Source: patent US20240148898A1
